Experimental data: article PMC9481740 (The Journal of Cell Biology, 2022)
Changes are numbered by the printed parent chain. Numbers in names are those of the source. Where “and” joins values, the source holds several entries; their conditions need not be identical. Equal entries are not always repeated.

Experiments:
[1] = biological target: ^mChSpindly^Y26BPA (human) (UniProt Q96EA4); assay: mass photometry; Refeyn TwoMP; sample diluted to a final 10 nM in Spindly buffer (50 mM Hepes pH 8.0, 250 mM NaCl, 2 mM TCEP); crosslinked samples measured after dilution beside untreated controls
[2] = biological target: the molecule itself; assay: as above
[3] = biological target: T1, mCherry-tagged full-length Spindly (^mChSpindly^FL) (human), Q96EA4; assay: as above; conditions: remark: other sources report otherwise
T1 chain: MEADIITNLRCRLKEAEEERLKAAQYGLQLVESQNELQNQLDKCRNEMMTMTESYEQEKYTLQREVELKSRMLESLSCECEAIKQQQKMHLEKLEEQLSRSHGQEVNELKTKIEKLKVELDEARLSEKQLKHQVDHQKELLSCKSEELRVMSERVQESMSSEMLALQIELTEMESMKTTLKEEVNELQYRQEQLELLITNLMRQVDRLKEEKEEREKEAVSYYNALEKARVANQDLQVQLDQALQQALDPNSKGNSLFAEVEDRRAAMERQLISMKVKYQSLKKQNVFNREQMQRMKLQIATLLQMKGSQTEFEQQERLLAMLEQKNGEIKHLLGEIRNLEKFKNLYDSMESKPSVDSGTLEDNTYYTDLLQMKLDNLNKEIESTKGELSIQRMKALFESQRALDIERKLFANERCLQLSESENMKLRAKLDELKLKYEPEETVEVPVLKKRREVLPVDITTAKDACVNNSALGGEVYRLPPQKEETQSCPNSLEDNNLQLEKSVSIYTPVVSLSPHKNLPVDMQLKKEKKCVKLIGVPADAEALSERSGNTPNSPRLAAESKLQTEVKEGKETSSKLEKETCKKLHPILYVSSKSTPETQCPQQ

[4] = biological target: T2, full-length Spindly without mCherry tag (human), Q96EA4; assay: as above; conditions: remark: other sources report otherwise
T2 chain: T1 chain

Spindly^250–605 = biological target: T3, Spindly^250–605 (human, UniProt Q96EA4 250-605); assay: SEC; Spindly N-terminal and C-terminal fragments mixed, 10 µM each; 4°C, Spindly buffer; fractions on SDS-PAGE; conditions: both partners purified
T3 construct: also called CC2 and CC3; source: TnAO38 insect cells (baculovirus), purified (HisTrap, Resource Q, Superdex 200)
T3 sequence (looked up): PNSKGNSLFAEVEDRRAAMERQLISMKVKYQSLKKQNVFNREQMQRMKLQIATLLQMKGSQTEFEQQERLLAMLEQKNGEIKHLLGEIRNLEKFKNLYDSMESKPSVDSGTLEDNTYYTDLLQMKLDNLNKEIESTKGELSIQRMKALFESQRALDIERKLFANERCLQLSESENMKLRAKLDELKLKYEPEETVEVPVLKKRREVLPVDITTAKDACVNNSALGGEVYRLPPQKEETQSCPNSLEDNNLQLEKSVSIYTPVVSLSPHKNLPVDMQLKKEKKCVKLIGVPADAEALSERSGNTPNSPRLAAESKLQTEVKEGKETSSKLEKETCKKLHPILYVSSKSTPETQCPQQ

[5] = biological target: the molecule itself; assay: crystal structure; Spindly 1-100, Se-SAD, refined to 2.8 Å; Bis-Tris Propane/HCl pH 6.5, 19% PEG3350, 0.2 M potassium thiocyanate
[6] = biological target: the molecule itself; assay: not stated; unpublished observations; dimer-tetramer equilibrium, tetramer prevailing at micromolar concentration

^mChSpindly^Y26BPA (from UniProt Q96EA4 1-605) (natural protein)
stoichiometry N [1]: 2

B1: ^mChSpindly^ΔRV (natural protein, human, UniProt Q96EA4 1-605, looked up)
chain: MEADIITNLRCRLKEAEEERLKAAQYGLQLVESQNELQNQLDKCRNEMMTMTESYEQEKYTLQREVELKSRMLESLSCECEAIKQQQKMHLEKLEEQLSRSHGQEVNELKTKIEKLKVELDEARLSEKQLKHQVDHQKELLSCKSEELRVMSEQESMSSEMLALQIELTEMESMKTTLKEEVNELQYRQEQLELLITNLMRQVDRLKEEKEEREKEAVSYYNALEKARVANQDLQVQLDQALQQALDPNSKGNSLFAEVEDRRAAMERQLISMKVKYQSLKKQNVFNREQMQRMKLQIATLLQMKGSQTEFEQQERLLAMLEQKNGEIKHLLGEIRNLEKFKNLYDSMESKPSVDSGTLEDNTYYTDLLQMKLDNLNKEIESTKGELSIQRMKALFESQRALDIERKLFANERCLQLSESENMKLRAKLDELKLKYEPEETVEVPVLKKRREVLPVDITTAKDACVNNSALGGEVYRLPPQKEETQSCPNSLEDNNLQLEKSVSIYTPVVSLSPHKNLPVDMQLKKEKKCVKLIGVPADAEALSERSGNTPNSPRLAAESKLQTEVKEGKETSSKLEKETCKKLHPILYVSSKSTPETQCPQQ
notes: also called ^mChSpindly^∆RV; source: E. coli BL21 CodonPlus, purified (HisTrap, Resource Q, Superdex 200); not shown: mCherry, N-terminal, kept
stoichiometry N [2]: 2

B2: mCherry-tagged full-length Spindly (^mChSpindly^FL), Q96EA4 1-605 (natural protein)
chain: T1 chain
stoichiometry N [3]: 2

B3: full-length Spindly without mCherry tag, Q96EA4 1-605 (natural protein)
chain: T1 chain
stoichiometry N [4]: 2

B4: ^mChSpindly^CC2* (R295E-K297E) (natural protein, human, UniProt Q96EA4 1-605, looked up)
chain: T1 chain with R295E, K297E
notes: source: E. coli BL21 CodonPlus, purified (HisTrap, Resource Q, Superdex 200); not shown: mCherry, N-terminal, kept
stoichiometry N [2]: 2

B5: Spindly^1–250 (domain or fragment, human, UniProt Q96EA4 1-250, looked up)
chain: MEADIITNLRCRLKEAEEERLKAAQYGLQLVESQNELQNQLDKCRNEMMTMTESYEQEKYTLQREVELKSRMLESLSCECEAIKQQQKMHLEKLEEQLSRSHGQEVNELKTKIEKLKVELDEARLSEKQLKHQVDHQKELLSCKSEELRVMSERVQESMSSEMLALQIELTEMESMKTTLKEEVNELQYRQEQLELLITNLMRQVDRLKEEKEEREKEAVSYYNALEKARVANQDLQVQLDQALQQALDP
notes: also called CC1; source: TnAO38 insect cells (baculovirus), purified (HisTrap, Resource Q, Superdex 200)
binding result (Spindly^250–605): binds

B6: ^mChSpindly^∆276–306 (natural protein, human, UniProt Q96EA4 1-605, looked up)
chain: MEADIITNLRCRLKEAEEERLKAAQYGLQLVESQNELQNQLDKCRNEMMTMTESYEQEKYTLQREVELKSRMLESLSCECEAIKQQQKMHLEKLEEQLSRSHGQEVNELKTKIEKLKVELDEARLSEKQLKHQVDHQKELLSCKSEELRVMSERVQESMSSEMLALQIELTEMESMKTTLKEEVNELQYRQEQLELLITNLMRQVDRLKEEKEEREKEAVSYYNALEKARVANQDLQVQLDQALQQALDPNSKGNSLFAEVEDRRAAMERQLISMKGSQTEFEQQERLLAMLEQKNGEIKHLLGEIRNLEKFKNLYDSMESKPSVDSGTLEDNTYYTDLLQMKLDNLNKEIESTKGELSIQRMKALFESQRALDIERKLFANERCLQLSESENMKLRAKLDELKLKYEPEETVEVPVLKKRREVLPVDITTAKDACVNNSALGGEVYRLPPQKEETQSCPNSLEDNNLQLEKSVSIYTPVVSLSPHKNLPVDMQLKKEKKCVKLIGVPADAEALSERSGNTPNSPRLAAESKLQTEVKEGKETSSKLEKETCKKLHPILYVSSKSTPETQCPQQ
notes: predominantly dimeric, with a tendency to form tetramers; source: E. coli BL21 CodonPlus, purified (HisTrap, Resource Q, Superdex 200); not shown: mCherry, N-terminal, kept
stoichiometry N [2]: 2 and 4

B7: Spindly^1–100 (domain or fragment, human, UniProt Q96EA4 1-100, looked up)
chain: MEADIITNLRCRLKEAEEERLKAAQYGLQLVESQNELQNQLDKCRNEMMTMTESYEQEKYTLQREVELKSRMLESLSCECEAIKQQQKMHLEKLEEQLSR
notes: selenomethionine protein was also made for phasing; source: E. coli BL21 (DE3), purified (Ni-Sepharose, ion exchange, S200 SEC); not shown: His6, N-terminal, cleaved
stoichiometry N [5]: 2

B8: Spindly^1–275 (domain or fragment, human, UniProt Q96EA4 1-275, looked up)
chain: MEADIITNLRCRLKEAEEERLKAAQYGLQLVESQNELQNQLDKCRNEMMTMTESYEQEKYTLQREVELKSRMLESLSCECEAIKQQQKMHLEKLEEQLSRSHGQEVNELKTKIEKLKVELDEARLSEKQLKHQVDHQKELLSCKSEELRVMSERVQESMSSEMLALQIELTEMESMKTTLKEEVNELQYRQEQLELLITNLMRQVDRLKEEKEEREKEAVSYYNALEKARVANQDLQVQLDQALQQALDPNSKGNSLFAEVEDRRAAMERQLISM
notes: source: TnAO38 insect cells (baculovirus), purified (HisTrap, Resource Q, Superdex 200)
stoichiometry N [6]: 2 and 4

B9: ^mChSpindly^76–605 (domain or fragment, human, UniProt Q96EA4 76-605, looked up)
chain: LSCECEAIKQQQKMHLEKLEEQLSRSHGQEVNELKTKIEKLKVELDEARLSEKQLKHQVDHQKELLSCKSEELRVMSERVQESMSSEMLALQIELTEMESMKTTLKEEVNELQYRQEQLELLITNLMRQVDRLKEEKEEREKEAVSYYNALEKARVANQDLQVQLDQALQQALDPNSKGNSLFAEVEDRRAAMERQLISMKVKYQSLKKQNVFNREQMQRMKLQIATLLQMKGSQTEFEQQERLLAMLEQKNGEIKHLLGEIRNLEKFKNLYDSMESKPSVDSGTLEDNTYYTDLLQMKLDNLNKEIESTKGELSIQRMKALFESQRALDIERKLFANERCLQLSESENMKLRAKLDELKLKYEPEETVEVPVLKKRREVLPVDITTAKDACVNNSALGGEVYRLPPQKEETQSCPNSLEDNNLQLEKSVSIYTPVVSLSPHKNLPVDMQLKKEKKCVKLIGVPADAEALSERSGNTPNSPRLAAESKLQTEVKEGKETSSKLEKETCKKLHPILYVSSKSTPETQCPQQ
notes: as for B4
stoichiometry N [2]: 2
